Measurements from publication PMC9813072 (Osteoporosis International, 2022).

Assays:
[1] = type: in vivo, healthy men and postmenopausal women; conditions: single SC 20 μg; N = 105 per treatment
[2] = cited from earlier work
serum calcium = conditions: teriparatide 20 μg once a day; cited from earlier work

Row | Substance | Total adverse events, number of events [1] [e] | Total adverse events, subjects [1] | Half-life ([2]; after SC injection) | Time to peak serum concentration ([2]; after SC injections of 20, 40, and 80 μg) | Absolute bioavailability ([2]; following SC administration) [%] | Median increase of serum calcium at peak (serum calcium) [mg/dL]
1 | EU-teriparatide: Forsteo®, Eli Lilly, The Netherlands; EU-approved teriparatide reference product | 5 | 4 (3.81%) n (%) |  |  |  | 
2 | Teriparatide |  |  | approximately 1 h | approximately 30 min | 95 | 0.4
3 | Teriparatide biosimilar: potential biosimilar of teriparatide developed by Intas Pharmaceutical Ltd., India; test product |  | 8 (7.62%) n (%) |  |  |  | 
4 | US-teriparatide: Forteo®, Lilly USA; US-approved teriparatide reference product | 3 | 3 (2.86%) n (%) |  |  |  | 
